# The supplement of paper PMC9112550, “Optimization of the antimicrobial peptide Bac7 by deep mutational scanning” (BMC Biology, 2022)
# Tested on: Escherichia coli TOP10
# Assay: shrunken log2 fold change of peptide-encoding DNA abundance (4.5 h post-induction vs induction); higher = less antimicrobial activity (less host growth inhibition)
# Conditions: time post-induction: 4.5 h; library: site-saturation at positions 5, 18, 19, 20
# 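Note: peptides expressed intracellularly from a pBAD plasmid library in pooled LB shake-flask culture, induced with 0.3% L-arabinose, DNA abundance read by NGS, three biological replicates, DESeq2 with apeglm shrinkage.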
row,Sequence,shrunken log2 fold change
1,RRIRTRPPRLPRPRPRPKQKPRP,-0.203
2,RRIRVRPPRLPRPRPRPAAVPRP,0.114
3,RRIRYRPPRLPRPRPRPGEWPRP,0.0486
4,RRIRRRPPRLPRPRPRPLSMPRP,0.263
5,RRIRQRPPRLPRPRPRPYFIPRP,-1.23
6,RRIRVRPPRLPRPRPRPWFDPRP,-0.439
7,RRIRQRPPRLPRPRPRPHWKPRP,-0.0878
8,RRIRRRPPRLPRPRPRPGNPPRP,0.608
9,RRIRHRPPRLPRPRPRPMLMPRP,-0.121
10,RRIRDRPPRLPRPRPRPHDKPRP,0.0278
11,RRIRVRPPRLPRPRPRPMEAPRP,0.0665
12,RRIRCRPPRLPRPRPRPRVHPRP,-0.152
13,RRIRHRPPRLPRPRPRPTLHPRP,0.0488
14,RRIRCRPPRLPRPRPRPDCEPRP,-0.0299
15,RRIRARPPRLPRPRPRPFDCPRP,-0.0326
16,RRIRHRPPRLPRPRPRPDENPRP,-0.225
17,RRIRSRPPRLPRPRPRPIVEPRP,1.56
18,RRIRERPPRLPRPRPRPNETPRP,-0.0321
19,RRIRNRPPRLPRPRPRPSCVPRP,-0.599
20,RRIRFRPPRLPRPRPRPHEGPRP,0.0417
21,RRIRHRPPRLPRPRPRPNLPPRP,-0.57
22,RRIRYRPPRLPRPRPRPSKGPRP,-0.203
23,RRIRKRPPRLPRPRPRPIFLPRP,0.0688
24,RRIRWRPPRLPRPRPRPKGLPRP,-0.0645
25,RRIRVRPPRLPRPRPRPMMNPRP,-0.28

row,Sequence,shrunken log2 fold change
1,RRIRMRPPRLPRPRPRPTWSPRP,0.66
2,RRIRQRPPRLPRPRPRPKINPRP,-0.354
3,RRIRVRPPRLPRPRPRPEWTPRP,0.171
4,RRIRQRPPRLPRPRPRPYWYPRP,-0.0759
5,RRIRNRPPRLPRPRPRPTDPPRP,0.162
6,RRIRLRPPRLPRPRPRPWVMPRP,-1.02
7,RRIRIRPPRLPRPRPRPAQVPRP,-0.00946
8,RRIRHRPPRLPRPRPRPSCIPRP,-0.265
9,RRIRNRPPRLPRPRPRPTQKPRP,0.241
10,RRIRKRPPRLPRPRPRPHEDPRP,0.139
11,RRIRERPPRLPRPRPRPHERPRP,-0.00965
12,RRIRCRPPRLPRPRPRPNILPRP,-0.701
13,RRIRFRPPRLPRPRPRPNEAPRP,-0.0305
14,RRIRHRPPRLPRPRPRPPMQPRP,0.268
15,RRIRHRPPRLPRPRPRPYLSPRP,-0.221
16,RRIRPRPPRLPRPRPRPAFQPRP,0.156
17,RRIRSRPPRLPRPRPRPVCEPRP,0.369
18,RRIRCRPPRLPRPRPRPTDLPRP,0.0853
19,RRIRDRPPRLPRPRPRPRKWPRP,-0.0062
20,RRIRRRPPRLPRPRPRPEDTPRP,0.0364
21,RRIRQRPPRLPRPRPRPHRQPRP,0.00471
22,RRIRFRPPRLPRPRPRPPTPPRP,0.908
23,RRIRWRPPRLPRPRPRPMVWPRP,0.025
24,RRIRMRPPRLPRPRPRPFGSPRP,0.00388
25,RRIRGRPPRLPRPRPRPHNCPRP,-0.0265

row,Sequence,shrunken log2 fold change
1,RRIRLRPPRLPRPRPRPLQLPRP,0.267
2,RRIRHRPPRLPRPRPRPHVVPRP,-0.0954
3,RRIRARPPRLPRPRPRPPFQPRP,0.415
4,RRIRDRPPRLPRPRPRPCSLPRP,-0.0409
5,RRIRRRPPRLPRPRPRPFRMPRP,-0.0671
6,RRIRPRPPRLPRPRPRPTQEPRP,0.617
7,RRIRRRPPRLPRPRPRPAFRPRP,0.311
8,RRIRGRPPRLPRPRPRPLSYPRP,0.00315
9,RRIRGRPPRLPRPRPRPIHTPRP,0.0205
10,RRIRKRPPRLPRPRPRPTHAPRP,0.505
11,RRIRMRPPRLPRPRPRPKGLPRP,-0.0628
12,RRIRCRPPRLPRPRPRPLSIPRP,-0.917
13,RRIRSRPPRLPRPRPRPHLHPRP,-0.177
14,RRIRKRPPRLPRPRPRPMHGPRP,0.272
15,RRIRSRPPRLPRPRPRPQKAPRP,0.091
16,RRIRCRPPRLPRPRPRPENAPRP,0.117
17,RRIRNRPPRLPRPRPRPRNPPRP,0.0944
18,RRIRLRPPRLPRPRPRPDMKPRP,-0.286
19,RRIRHRPPRLPRPRPRPTPTPRP,0.138
20,RRIRHRPPRLPRPRPRPMMIPRP,0.00431
21,RRIRFRPPRLPRPRPRPFMVPRP,-0.654
22,RRIRARPPRLPRPRPRPGMTPRP,0.261
23,RRIRSRPPRLPRPRPRPFRCPRP,-0.148
24,RRIRFRPPRLPRPRPRPSKAPRP,-0.367
25,RRIRWRPPRLPRPRPRPLWIPRP,-0.115
